In the supplement of paper PMC10567573:
± gives the standard deviation.

Experiment: protein stability index of a GFP-peptide fusion (GPS, HEK-293T) (PSI 1-6); higher = more stable
[1] = treatment: DMSO, c terminus: a fixed tail appended
[2] = treatment: MLN4924 1 uM, 8 h, c terminus: a fixed tail appended
[3] = treatment: DMSO, c terminus: native
[4] = treatment: MLN4924 1 uM, 8 h, c terminus: native
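Further: 24-mer peptide tiles fused after GFP, lentivirally expressed, FACS-sorted into six equal bins by GFP/DsRed ratio, decoded by Illumina sequencing, PSI is the read-weighted mean bin number.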

LIVGAPIWFRVPYSIISLLLKDKV [PTPN9] gave a protein stability index [1] of 2.59 ± 0.37 and a protein stability index [2] of 2.75 ± 0.85.
Sequence SVPLSLCVSSHLALPAQHHWESW [CLPTM1] has a protein stability index [3] of 2.22 ± 0.1 and a protein stability index [4] of 2.33 ± 0.25.
Sequence AYLELEITLSQEQIQKYTDCLQFY [RTN1] has a protein stability index [1] of 2.57 ± 0.4 and a protein stability index [2] of 3.04 ± 0.86.
IQSLTCEVDGLRGTNEALLRQLRE [PRPH] showed a protein stability index [1] of 3.74 ± 0.4 and a protein stability index [2] of 3.96 ± 0.24.
SRSAAQDLDRMGVMTLPSDLRKHR [PPFIA4] gave a protein stability index [1] of 4.54 ± 0.48 and a protein stability index [2] of 5.22 ± 0.1.
For RQTKKMFCDMDKSLLCLLCSNSQE [TRIM43], the protein stability index [1] was 2.44 ± 0.15 and the protein stability index [2] was 2.86 ± 0.21.
Sequence VRDGPFGFSPIIGRFCGQQNPPVI [NETO1] has a protein stability index [1] of 2.27 ± 0.21 and a protein stability index [2] of 2.25 ± 0.19.
For MASSAASSEHFEKLHEIFRGLHED [VTI1B], the protein stability index [1] was 4.29 ± 0.16 and the protein stability index [2] was 4.28 ± 0.1.
Sequence RQKDLKFLSEEEYWKLQIFFTNVI [CCNC] has a protein stability index [1] of 2.57 ± 0.25 and a protein stability index [2] of 2.47 ± 0.83.
RRNEETPEEGQQPWLCGESFTLAD [GDAP1] showed a protein stability index [1] of 5.02 ± 0.13 and a protein stability index [2] of 4.99 ± 0.3.
Work on SDINSLRRILDELTLCRSDLEAQM [KRT33B] yielded a protein stability index [1] of 2.85 ± 0.36 and a protein stability index [2] of 2.92 ± 0.38.
Sequence MASRAGPRAAGTDGSDFQHRERVA [JAGN1] has a protein stability index [1] of 4.67 ± 0.31 and a protein stability index [2] of 4.7 ± 0.13.
Work on SVKIIFKLPNDSRVERRFHFSQSL [FAF2] yielded a protein stability index [1] of 2.72 ± 0.67 and a protein stability index [2] of 2.76 ± 0.55.
Sequence HETRLVEVDSGRQIEYEYKLAQAL [LMNB1] has a protein stability index [1] of 3.81 ± 0.044 and a protein stability index [2] of 3.96 ± 0.29.
Work on QLKESKSKIDALSSEKLNLQKDLE [CEP70] yielded a protein stability index [1] of 5.03 ± 0.1 and a protein stability index [2] of 5.16 ± 0.13.
LDDIIRHDFFLQGFTPDRLSSSCC [PLK2] showed a protein stability index [1] of 2.48 ± 0.043 and a protein stability index [2] of 2.64 ± 0.3.
Sequence VAVDFTWEEWQFLSPAQKDLYRDV [ZNF649] has a protein stability index [1] of 2.54 ± 0.73 and a protein stability index [2] of 2.64 ± 0.22.
With PTMPALFSDHTFRHYAYLRDSLSH [INTS4] the protein stability index [1] was 2.3 ± 0.14 and the protein stability index [2] was 2.31 ± 0.12.
For ESLMALCTDFCLRNLDGTLGYLLD [ZER1], the protein stability index [1] was 2.71 ± 0.4 and the protein stability index [2] was 2.94 ± 0.39.
Sequence TWESKNILAVSFAPLVQPSKNDNG [PCMTD1] has a protein stability index [1] of 3.3 ± 0.41 and a protein stability index [2] of 3.6 ± 0.51.
ASENHGCEHECVNADGSYLCQCHE [MATN2] showed a protein stability index [1] of 5.46 ± 0.17 and a protein stability index [2] of 5.49 ± 0.38.
In the case of EAACNDVDRWPAPVPGKTLHLPIM [DENND6A], the protein stability index [1] is reported as 3.52 ± 0.35 and the protein stability index [2] is reported as 3.19 ± 0.37.
Work on VVILPCQHNLCRKCASDIFQASNP [TRIM55] yielded a protein stability index [1] of 2.48 ± 0.34 and a protein stability index [2] of 2.38 ± 0.22.
With MWWRGCKIKAIMALVAAILLLVII [VAMP4] the protein stability index [1] was 2.89 ± 0.096 and the protein stability index [2] was 2.855 ± 0.027.
For DERRRLLEQKTQESQKKKQQDDSD [ZNF207], the protein stability index [1] was 5.54 ± 0.33 and the protein stability index [2] was 5.53 ± 0.25.
Sequence FVENGHSESSGQTHLEGDTVQIIC [CFHR2] has a protein stability index [1] of 3.21 ± 0.38 and a protein stability index [2] of 3.67 ± 0.37.
For DSETLDLEEAEGAVGYQPEYSKFC [NFE2L1], the protein stability index [1] was 5.13 ± 0.34 and the protein stability index [2] was 5.01 ± 0.5.
With QKVLGKALSLIRFPLMTIEEFAAG [BTBD1] the protein stability index [1] was 3.06 ± 0.57 and the protein stability index [2] was 2.52 ± 0.38.
Work on KQSLVVAVQDHGQPPLSATVTLTV [PCDHGA10] yielded a protein stability index [1] of 2.72 ± 0.59 and a protein stability index [2] of 2.68 ± 0.45.
Work on PDHQVPYGHDYPRAAYQQVIQPAL [TRAF3IP2] yielded a protein stability index [1] of 3.48 ± 0.29 and a protein stability index [2] of 3.56 ± 0.24.
Work on SLVMGSQTESALSKKLRAILPKQS [LCOR] yielded a protein stability index [1] of 2.71 ± 0.21 and a protein stability index [2] of 2.95 ± 0.37.
With ALQEYSSISEKLSSTNFAMKRDVQ [C8orf76] the protein stability index [1] was 3.26 ± 0.18 and the protein stability index [2] was 3.48 ± 0.43.
In the case of VTFREENTIAFRHLFLLGYSDGAD [MCOLN1], the protein stability index [1] is reported as 2.38 ± 0.2 and the protein stability index [2] is reported as 2.2 ± 0.11.
In the case of GDDQPSETDHLSMEEEDPMPRQIS [TPRG1], the protein stability index [1] is reported as 5.47 ± 0.17 and the protein stability index [2] is reported as 5.64 ± 0.22.
With VFRWLAYSYASTHRLMTDARRRVC [CPXM2] the protein stability index [1] was 2.35 ± 0.32 and the protein stability index [2] was 2.54 ± 0.32.
AGSSNLPAPERTMAGLSKEPNTLR [VENTX] gave a protein stability index [1] of 4.48 ± 0.45 and a protein stability index [2] of 4.71 ± 0.47.
In the case of AGEGLPQVYYFGPCGKYNAMVLEL [CSNK1G1], the protein stability index [1] is reported as 3.19 ± 0.65 and the protein stability index [2] is reported as 2.65 ± 0.94.
Sequence NVVPIHVPPTTENKPKVQCCQNI [RAB11A] has a protein stability index [3] of 4.13 ± 0.19 and a protein stability index [4] of 4.12 ± 0.11.
In the case of EAFAASAVGSGERRGGGPVFPAPV [ZBTB22], the protein stability index [1] is reported as 3.93 ± 0.32 and the protein stability index [2] is reported as 4.03 ± 0.28.
For MAAAQEADGARSAVVAAGGGSSGQ [CLPTM1], the protein stability index [1] was 5.36 ± 0.26 and the protein stability index [2] was 5.29 ± 0.2.
Sequence RFFACPSKATFSRNIMNLIDIVAI [KCNA3] has a protein stability index [1] of 2.8 ± 0.61 and a protein stability index [2] of 2.87 ± 0.46.
ILDLLVLEQFLSILPKELQGWVRE [ZSCAN9] showed a protein stability index [1] of 2.38 ± 0.45 and a protein stability index [2] of 2.19 ± 0.39.
With SEVKEELAGQKDELQLSDLLKQGY [PKD2L1] the protein stability index [1] was 4.81 ± 0.28 and the protein stability index [2] was 4.92 ± 0.24.
EVDEEGFTVRPDVTQNSTAEPSRF [FCHO1] showed a protein stability index [1] of 5.26 ± 0.13 and a protein stability index [2] of 5.26 ± 0.2.
